Data as given in publication PMC9652321, “Structural basis of human SNAPc recognizing proximal sequence element of snRNA promoter”.

What was measured:
[1] = molecular target: T1, mSNAPc#2 5Mu Y389A;R445A;R151A;K194A;W350A (Homo sapiens) (UniProt Q5SXM2+Q92966+Q16533+O75971); experiment: SPR; conditions: EMSA: 100 mM KCl, 25 mM HEPES-K pH 7.6, 12.5 mM MgCl2, 10 uM ZnCl2, 0.1 mM EDTA, 10% glycerol, 3 mM DTT, 0.5 mM PMSF, 50 nM DNA, RT 30 min; SPR: 100 mM KCl, 12.
T1 sequence 1: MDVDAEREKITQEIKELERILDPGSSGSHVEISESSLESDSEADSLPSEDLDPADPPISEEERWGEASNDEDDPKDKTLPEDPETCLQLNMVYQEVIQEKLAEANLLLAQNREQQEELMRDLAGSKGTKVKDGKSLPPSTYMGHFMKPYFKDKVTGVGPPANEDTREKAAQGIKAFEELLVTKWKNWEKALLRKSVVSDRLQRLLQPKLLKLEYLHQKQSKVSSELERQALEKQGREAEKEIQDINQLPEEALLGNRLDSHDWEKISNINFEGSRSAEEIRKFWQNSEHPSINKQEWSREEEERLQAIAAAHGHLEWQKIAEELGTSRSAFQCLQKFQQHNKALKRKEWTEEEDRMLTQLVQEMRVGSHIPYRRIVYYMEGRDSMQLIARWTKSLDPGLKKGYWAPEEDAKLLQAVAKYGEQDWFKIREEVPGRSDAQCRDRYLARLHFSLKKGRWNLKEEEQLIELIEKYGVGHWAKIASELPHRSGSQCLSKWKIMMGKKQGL
T1 sequence 2: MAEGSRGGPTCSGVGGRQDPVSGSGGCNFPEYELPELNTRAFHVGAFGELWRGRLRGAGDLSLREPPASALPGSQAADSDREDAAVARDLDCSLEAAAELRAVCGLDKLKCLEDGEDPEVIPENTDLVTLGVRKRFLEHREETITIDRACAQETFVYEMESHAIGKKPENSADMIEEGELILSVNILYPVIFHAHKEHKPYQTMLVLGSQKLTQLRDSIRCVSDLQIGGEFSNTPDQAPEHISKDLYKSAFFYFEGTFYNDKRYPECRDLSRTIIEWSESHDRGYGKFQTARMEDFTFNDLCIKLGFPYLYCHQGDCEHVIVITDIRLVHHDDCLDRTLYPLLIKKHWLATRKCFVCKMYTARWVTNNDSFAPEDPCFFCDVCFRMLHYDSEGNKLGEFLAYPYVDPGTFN
T1 sequence 3: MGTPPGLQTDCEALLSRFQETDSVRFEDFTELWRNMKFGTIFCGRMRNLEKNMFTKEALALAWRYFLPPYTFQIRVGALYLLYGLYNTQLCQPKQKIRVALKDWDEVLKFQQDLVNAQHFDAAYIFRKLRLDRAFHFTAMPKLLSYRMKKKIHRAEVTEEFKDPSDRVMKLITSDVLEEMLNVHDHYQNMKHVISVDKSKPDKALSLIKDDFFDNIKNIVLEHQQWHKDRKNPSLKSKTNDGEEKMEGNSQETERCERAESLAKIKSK
T1 sequence 4: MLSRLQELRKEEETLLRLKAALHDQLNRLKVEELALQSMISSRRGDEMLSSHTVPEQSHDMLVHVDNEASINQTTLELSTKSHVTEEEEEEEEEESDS

[2] = molecular target: T2, mSNAPc#2 4Mu Y389A;R445A;R151A;W350A (Homo sapiens) (UniProt Q5SXM2+Q92966+Q16533+O75971); experiment: SPR; conditions: EMSA: 100 mM KCl, 25 mM HEPES-K pH 7.6, 12.5 mM MgCl2, 10 uM ZnCl2, 0.1 mM EDTA, 10% glycerol, 3 mM DTT, 0.5 mM PMSF, 50 nM DNA, RT 30 min; SPR: 100 mM KCl, 12.
T2 sequence 1: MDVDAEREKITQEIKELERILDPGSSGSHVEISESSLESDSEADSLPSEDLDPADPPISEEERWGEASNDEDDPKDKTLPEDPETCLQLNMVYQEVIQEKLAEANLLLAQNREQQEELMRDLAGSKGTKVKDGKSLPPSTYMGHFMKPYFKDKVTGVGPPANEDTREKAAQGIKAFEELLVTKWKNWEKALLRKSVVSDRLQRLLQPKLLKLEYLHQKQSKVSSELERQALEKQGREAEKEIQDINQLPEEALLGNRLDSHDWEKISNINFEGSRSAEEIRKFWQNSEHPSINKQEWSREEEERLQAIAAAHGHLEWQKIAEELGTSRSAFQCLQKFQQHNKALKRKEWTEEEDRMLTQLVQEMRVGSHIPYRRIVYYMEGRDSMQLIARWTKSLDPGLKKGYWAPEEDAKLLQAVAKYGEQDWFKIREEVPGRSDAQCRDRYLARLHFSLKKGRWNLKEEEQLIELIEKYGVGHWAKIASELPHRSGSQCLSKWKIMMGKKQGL
T2 sequence 2: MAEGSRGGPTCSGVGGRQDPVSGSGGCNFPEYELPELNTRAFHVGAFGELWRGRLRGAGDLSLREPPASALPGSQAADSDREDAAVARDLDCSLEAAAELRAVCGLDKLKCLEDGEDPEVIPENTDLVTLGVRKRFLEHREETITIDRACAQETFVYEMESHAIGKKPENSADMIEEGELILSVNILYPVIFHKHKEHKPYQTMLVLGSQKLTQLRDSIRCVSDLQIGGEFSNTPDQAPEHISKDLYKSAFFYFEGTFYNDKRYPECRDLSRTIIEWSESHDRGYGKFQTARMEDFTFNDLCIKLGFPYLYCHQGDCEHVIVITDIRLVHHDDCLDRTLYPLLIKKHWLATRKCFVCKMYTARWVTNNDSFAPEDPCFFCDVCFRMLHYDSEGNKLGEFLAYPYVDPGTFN
T2 sequence 3: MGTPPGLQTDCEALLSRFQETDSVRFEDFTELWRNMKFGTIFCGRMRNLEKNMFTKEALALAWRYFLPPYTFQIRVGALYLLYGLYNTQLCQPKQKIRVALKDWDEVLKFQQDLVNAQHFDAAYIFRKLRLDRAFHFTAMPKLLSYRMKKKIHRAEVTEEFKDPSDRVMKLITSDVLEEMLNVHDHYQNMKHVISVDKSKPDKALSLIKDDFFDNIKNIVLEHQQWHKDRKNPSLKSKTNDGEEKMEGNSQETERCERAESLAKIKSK
T2 sequence 4: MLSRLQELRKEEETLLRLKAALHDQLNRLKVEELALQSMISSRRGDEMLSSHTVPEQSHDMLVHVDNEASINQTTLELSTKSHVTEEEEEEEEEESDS

mSNAPc#11 (rod module) = molecular target: T3, mSNAPc#11 (rod module) (Homo sapiens, UniProt Q5SXM2;Q16533;O75971 1-143;148-268;1-98); experiment: EMSA; 200 and 800 nM protein; EMSA: 100 mM KCl, 25 mM HEPES-K pH 7.6, 12.5 mM MgCl2, 10 uM ZnCl2, 0.1 mM EDTA, 10% glycerol, 3 mM DTT, 0.5 mM PMSF, 50 nM DNA, RT 30 min; SPR: 100 mM KCl, 12.5 mM MgCl2, 10 uM ZnCl2, 0.1 mM EDTA, 0.05% P20, 25 C; conditions: protein: recombinant; tags: Strep SNAP19; MBP SNAP190; MBP N-term SNAP43; copies: 1;1;1; label: 5'-FAM on positive strand (EMSA)
T3 sequence 1: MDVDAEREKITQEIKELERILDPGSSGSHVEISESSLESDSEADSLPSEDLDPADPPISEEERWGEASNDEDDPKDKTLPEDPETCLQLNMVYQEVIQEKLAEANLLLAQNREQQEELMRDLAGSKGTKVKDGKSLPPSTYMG
T3 sequence 2: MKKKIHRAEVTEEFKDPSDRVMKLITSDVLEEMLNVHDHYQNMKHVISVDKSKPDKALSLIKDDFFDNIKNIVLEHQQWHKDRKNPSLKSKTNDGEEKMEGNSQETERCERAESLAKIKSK
T3 sequence 3: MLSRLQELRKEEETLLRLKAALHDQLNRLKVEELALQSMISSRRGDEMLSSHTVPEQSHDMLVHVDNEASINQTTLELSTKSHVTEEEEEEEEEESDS

mSNAPc#2 WT = molecular target: T4, mSNAPc#2 WT (Homo sapiens, UniProt Q5SXM2;Q92966;Q16533;O75971 1-505;1-411;1-268;1-98); experiment: EMSA; 200 and 1000 nM protein; EMSA: 100 mM KCl, 25 mM HEPES-K pH 7.6, 12.5 mM MgCl2, 10 uM ZnCl2, 0.1 mM EDTA, 10% glycerol, 3 mM DTT, 0.5 mM PMSF, 50 nM DNA, RT 30 min; SPR: 100 mM KCl, 12.5 mM MgCl2, 10 uM ZnCl2, 0.1 mM EDTA, 0.05% P20, 25 C; conditions: protein: recombinant; tags: FLAG N-term SNAP190; 6xHis N-term SNAP43; copies: 1;1;1;1; label: 5'-FAM
T4 sequence 1: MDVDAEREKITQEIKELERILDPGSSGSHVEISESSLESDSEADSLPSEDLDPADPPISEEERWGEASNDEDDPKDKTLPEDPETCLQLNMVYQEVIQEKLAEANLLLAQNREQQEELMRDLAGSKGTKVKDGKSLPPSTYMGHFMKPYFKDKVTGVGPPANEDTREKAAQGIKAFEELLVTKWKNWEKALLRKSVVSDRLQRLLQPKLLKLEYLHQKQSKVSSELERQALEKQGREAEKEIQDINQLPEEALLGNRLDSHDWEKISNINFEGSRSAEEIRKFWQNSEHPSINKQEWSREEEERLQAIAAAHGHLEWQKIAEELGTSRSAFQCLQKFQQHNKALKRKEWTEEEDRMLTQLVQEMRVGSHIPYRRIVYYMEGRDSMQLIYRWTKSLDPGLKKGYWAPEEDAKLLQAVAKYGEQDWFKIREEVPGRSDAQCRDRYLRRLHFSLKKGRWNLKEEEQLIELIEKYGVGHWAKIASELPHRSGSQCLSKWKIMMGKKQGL
T4 sequence 2: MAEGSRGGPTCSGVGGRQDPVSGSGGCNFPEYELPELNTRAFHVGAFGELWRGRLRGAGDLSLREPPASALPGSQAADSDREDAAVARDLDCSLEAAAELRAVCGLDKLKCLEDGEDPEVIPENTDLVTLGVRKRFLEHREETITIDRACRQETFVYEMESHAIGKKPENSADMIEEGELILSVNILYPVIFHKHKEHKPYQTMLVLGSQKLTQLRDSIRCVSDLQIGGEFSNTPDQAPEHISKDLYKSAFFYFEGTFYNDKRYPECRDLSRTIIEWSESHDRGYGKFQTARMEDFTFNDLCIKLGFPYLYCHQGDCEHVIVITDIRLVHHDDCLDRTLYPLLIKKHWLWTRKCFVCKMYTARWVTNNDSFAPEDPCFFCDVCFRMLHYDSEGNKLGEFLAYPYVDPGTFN
T4 sequence 3: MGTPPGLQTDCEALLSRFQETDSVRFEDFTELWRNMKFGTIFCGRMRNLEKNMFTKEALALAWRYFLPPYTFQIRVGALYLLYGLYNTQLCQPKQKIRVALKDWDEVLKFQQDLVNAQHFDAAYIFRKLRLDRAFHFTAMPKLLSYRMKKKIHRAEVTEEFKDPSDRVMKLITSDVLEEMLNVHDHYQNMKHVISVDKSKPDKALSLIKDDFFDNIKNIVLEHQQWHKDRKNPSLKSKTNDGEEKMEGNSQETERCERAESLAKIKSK
T4 sequence 4: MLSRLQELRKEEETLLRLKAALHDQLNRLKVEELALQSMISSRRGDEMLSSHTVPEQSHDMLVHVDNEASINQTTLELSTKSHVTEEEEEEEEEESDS

## TGCTTACCGTAACTTGAAAGTATTT (double strand) [25 bp hU6-1 PSE (SPR)]
[1]
  Kd: 49 µM
[2]
  Kd: 8.91 µM

B1: 25 bp hU6-1 PSE (dsDNA)
DNA 1: TGCTTACCGTAACTTGAAAGTATTT
DNA 2: AAATACTTTCAAGTTACGGTAAGCA
mSNAPc#11 (rod module)
  binding result: no binding

B2: PSE 6Sub (dsDNA)
DNA 1: TGCTTACCTGAACTTGCCATCATTT
DNA 2: AAATGATGGCAAGTTCAGGTAAGCA
mSNAPc#2 WT
  binding result: no binding

B3: PSE 8Sub (dsDNA)
DNA 1: TGCTTACATGAACTTCCCATCATTT
DNA 2: AAATGATGGGAAGTTCATGTAAGCA
mSNAPc#2 WT
  binding result: no binding
